{"source": "paper PMC4316190", "about": "“Crystal structure of UbiX, an aromatic acid decarboxylase from the psychrophilic bacterium Colwellia psychrerythraea that undergoes FMN-induced conformational changes” (Scientific Reports, 2015)", "key": {"CpsUbiX": {"molecular_target": "T1, CpsUbiX (Colwellia psychrerythraea, UniProt Q489U8)", "T1 construct": "gene ubiX; full length, residues 1-206, pET-28a(+) NdeI/XhoI, E. coli BL21(DE3), His-tag cleaved with thrombin, dodecamer; FMN site formed by three neighbouring subunits", "test": "X-ray crystal structure, […] Å", "assay_type": "binding", "details": "co-purified from E. coli; crystals at pH 5.8; site at the interface of three subunits"}, "[1]": {"molecular_target": "the molecule itself", "test": "crystal structure; wild type CpsUbiX with bound FMN; space group C222(1), 6 monomers in the asymmetric unit, dodecamer generated by crystallographic symmetry; 200 mM NaCl, 100 mM potassium/sodium phosphate pH 5.8, 11% PEG-8000; 1.9 Å"}, "[2]": {"molecular_target": "the molecule itself", "test": "crystal structure; V47S mutant CpsUbiX without FMN; space group P23, one molecule in the asymmetric unit, dodecamer generated by crystallographic symmetry; 0.1 M tri-sodium citrate pH 5.4, 0.5 M ammonium sulfate, 1.2 M lithium sulfate, 293 K; 1.76 Å"}}}
{"molecule": "Cc1cc2nc3c(=O)[nH]c(=O)nc-3n(C[C@H](O)[C@H](O)[C@H](O)COP(=O)(O)O)c2cc1C", "note": "[FMN]", "values": [{"measurement": "X-ray crystal structure, 1.9 Å", "setting": "CpsUbiX", "result": "FMN-bound (wild type) and FMN-free (V47S mutant) CpsUbiXs were deposited in the Protein Data Bank"}]}
{"molecule": "Colwellia psychrerythraea 34H UbiX protein (CpsUbiX), wild type, FMN-bound form (enzyme, UniProt Q489U8 1-206, looked up, UbiX (3-octaprenyl-4-hydroxybenzoate carboxylase) of Colwellia psychrerythraea strain 34H (ATCC BAA-681), UniProt Q489U8, full-length gene, residues 1-206; Cloned between the NdeI and XhoI sites of pET-28a(+); the His-tag was cleaved with thrombin, so a few vector residues probably remain at the N-terminus (surmised); also called 3-octaprenyl-4-hydroxybenzoate carboxylase; wild type CpsUbiX; …) MNNDFNGKITLAITGASGASYAMRLIECLIAANYQLYILCSSAGRIVLDTEVGVKIPSSPDAASKFLTEKYQAKDQQITVFGKEQWFSPVASGSSAPKQMVVCPCSTGTMAAICHGMSDNLIERAADVVIKERGQLILMVRETPFSTLHLQNMLSLSQQGVTIMPASPGFYHKVETIEDLIDFMVGRVLDHLGIEQDIMPRWGYNI", "values": [{"measurement": "stoichiometry N", "setting": "[1]", "result": 12}]}
{"molecule": "V47S mutant CpsUbiX (FMN-free form) (enzyme, Colwellia psychrerythraea 34H, UniProt Q489U8 1-206, looked up, UbiX (3-octaprenyl-4-hydroxybenzoate carboxylase) of Colwellia psychrerythraea strain 34H, UniProt Q489U8, residues 1-206, with V47S; it was expressed and purified as the wild type; also called V47S CpsUbiX; FMN-free CpsUbiX; source: E. coli BL21 (DE3), purified by methods similar to the wild type (Ni-NTA, thrombin cleavage, Superdex-200 SEC); copies: 12) MNNDFNGKITLAITGASGASYAMRLIECLIAANYQLYILCSSAGRISLDTEVGVKIPSSPDAASKFLTEKYQAKDQQITVFGKEQWFSPVASGSSAPKQMVVCPCSTGTMAAICHGMSDNLIERAADVVIKERGQLILMVRETPFSTLHLQNMLSLSQQGVTIMPASPGFYHKVETIEDLIDFMVGRVLDHLGIEQDIMPRWGYNI", "values": [{"measurement": "stoichiometry N", "setting": "[2]", "result": 12}]}
